Results reported in publication PMC3281842 (2012).
Square brackets hold non-standard residues; d marks the D form. Ends that are not written are not given here. Arg(Me2a) = CN(C)C(=N)NCCC[C@H](N)C(=O)O

Biological target: TDRD3 (aa 520–633) (human, UniProt Q9H7E2 520-633)
Assay: ITC

B1: PIWIL1_R4me2a peptide (TGRme2aARARA) (peptide)
peptide: TG[Arg(Me2a)]ARARA
- Kd: > 500 µM
